Measurements: the supplement of paper PMC10567573
± gives the standard deviation.

Assay: protein stability index of a GFP-peptide fusion (GPS, HEK-293T) (PSI 1-6); higher = more stable
Details: c terminus: a fixed tail appended
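Also: 24-mer peptide tiles fused after GFP, lentivirally expressed, FACS-sorted into six equal bins by GFP/DsRed ratio, decoded by Illumina sequencing, PSI is the read-weighted mean bin number.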

Sequence TFICYVASSASAFLTAPLLEFLLA [CMTM3] has a protein stability index (treatment: DMSO) of 3.36 ± 0.35 and a protein stability index (treatment: MLN4924 1 uM, 8 h) of 2.98 ± 0.39.
TFNFISSLKAICTEIANCSLKVKF [PLD5] gave a protein stability index (treatment: DMSO) of 2.68 ± 0.56 and a protein stability index (treatment: MLN4924 1 uM, 8 h) of 3.29 ± 0.1.
For TGEAGEELDLRLRLAQPSSPEVLT [RTN2], the protein stability index (treatment: DMSO) was 4.9 ± 0.41 and the protein stability index (treatment: MLN4924 1 uM, 8 h) was 5.01 ± 0.29.
For TGEKLLELNGHTQKITAIITFPSL [WDR41], the protein stability index (treatment: DMSO) was 2.45 ± 0.58 and the protein stability index (treatment: MLN4924 1 uM, 8 h) was 2.3 ± 0.55.
Sequence TGIVSVAFLLLPLPDELGSQLPQV [MOSPD3] has a protein stability index (treatment: DMSO) of 2.75 ± 0.59 and a protein stability index (treatment: MLN4924 1 uM, 8 h) of 2.72 ± 0.86.
TGVELAPRSAEPGYLVTKVVAVDR [PCDHGA10] showed a protein stability index (treatment: DMSO) of 3.94 ± 0.34 and a protein stability index (treatment: MLN4924 1 uM, 8 h) of 3.93 ± 0.084.
Work on TGYLSTMVGLILGPFGINHGIELH [PCMTD1] yielded a protein stability index (treatment: DMSO) of 3.29 ± 0.44 and a protein stability index (treatment: MLN4924 1 uM, 8 h) of 3.35 ± 0.25.
In the case of THGALCLELLVNNGADVNIQSKDG [ANKRD44], the protein stability index (treatment: DMSO) is reported as 3.99 ± 0.22 and the protein stability index (treatment: MLN4924 1 uM, 8 h) is reported as 4.01 ± 0.37.
Work on THICRSHNSINQSLDESVIYGPGN [SLC2A12] yielded a protein stability index (treatment: DMSO) of 3.62 ± 0.18 and a protein stability index (treatment: MLN4924 1 uM, 8 h) of 3.74 ± 0.2.
Work on TIKKRLENNYYWSASECMQDFNTM [BRD3] yielded a protein stability index (treatment: DMSO) of 2.08 ± 0.47 and a protein stability index (treatment: MLN4924 1 uM, 8 h) of 2.15 ± 0.43.
TIKLWKITERDKRPEGYNLKDEEG [PPP2R2C] showed a protein stability index (treatment: DMSO) of 4.05 ± 0.25 and a protein stability index (treatment: MLN4924 1 uM, 8 h) of 4.03 ± 0.17.
TIKPRRVEPVCSGLQAQILHCYRD [CHCHD6] showed a protein stability index (treatment: DMSO) of 2.98 ± 0.051 and a protein stability index (treatment: MLN4924 1 uM, 8 h) of 2.98 ± 0.21.
Sequence TIKSLSAELLKANEIIKKLQGDLK [SASS6] has a protein stability index (treatment: DMSO) of 2.16 ± 0.48 and a protein stability index (treatment: MLN4924 1 uM, 8 h) of 2.37 ± 0.36.
Work on TIQGVPLSSYISINSDTGVLYALR [PCDHGA10] yielded a protein stability index (treatment: DMSO) of 2.19 ± 0.096 and a protein stability index (treatment: MLN4924 1 uM, 8 h) of 2.14 ± 0.17.
For TIVFLDKEVFASRISNPSDDNSCE [PCMTD2], the protein stability index (treatment: DMSO) was 3.8 ± 0.4 and the protein stability index (treatment: MLN4924 1 uM, 8 h) was 3.83 ± 0.21.
Work on TLKFYCLPDNYEIIDSSLEDITYV [USP39] yielded a protein stability index (treatment: DMSO) of 2.18 ± 0.047 and a protein stability index (treatment: MLN4924 1 uM, 8 h) of 2.29 ± 0.19.
For TLQPPEFLYSHGVPRTLSPHQYHS [TBX5], the protein stability index (treatment: DMSO) was 2.83 ± 0.14 and the protein stability index (treatment: MLN4924 1 uM, 8 h) was 3.06 ± 0.12.
In the case of TLQSITWQMIEQIQFIKLFGMAKI [HNF4A], the protein stability index (treatment: DMSO) is reported as 2.86 ± 0.6 and the protein stability index (treatment: MLN4924 1 uM, 8 h) is reported as 2.87 ± 0.42.
For TLSISDVRTLSEPPDKGEEQVNFC [ZBTB22], the protein stability index (treatment: DMSO) was 4.94 ± 0.21 and the protein stability index (treatment: MLN4924 1 uM, 8 h) was 5.09 ± 0.22.
For TLVQREEPLRILSKYHRFISFTLY [CDS2], the protein stability index (treatment: DMSO) was 2.95 ± 0.8 and the protein stability index (treatment: MLN4924 1 uM, 8 h) was 2.8 ± 0.86.
Work on TMSIPVAMETDGPLFEDVQMLRKT [PPP2R5C] yielded a protein stability index (treatment: DMSO) of 4.22 ± 0.12 and a protein stability index (treatment: MLN4924 1 uM, 8 h) of 4.3 ± 0.1.
TPASNHLPGWEDIESKIPLNMEEP [SLC19A2] showed a protein stability index (treatment: DMSO) of 5.28 ± 0.21 and a protein stability index (treatment: MLN4924 1 uM, 8 h) of 5.44 ± 0.066.
Sequence TPQEPWPGPTAPSPTSRPPWAVDP [PDLIM7] has a protein stability index (treatment: DMSO) of 4.19 ± 0.21 and a protein stability index (treatment: MLN4924 1 uM, 8 h) of 4.28 ± 0.093.
With TPWALALLRTFDAGEFTGWEKVGS [RIPK4] the protein stability index (treatment: DMSO) was 2.29 ± 0.61 and the protein stability index (treatment: MLN4924 1 uM, 8 h) was 1.49 ± 0.13.
In the case of TQATETTTTRHKRTANPSKTIDLG [CLINT1], the protein stability index (treatment: DMSO) is reported as 4.88 ± 0.09 and the protein stability index (treatment: MLN4924 1 uM, 8 h) is reported as 5.05 ± 0.13.
With TRLQDCYVDSPALTNIWMARTCAK [C22orf31] the protein stability index (treatment: DMSO) was 2.47 ± 0.2 and the protein stability index (treatment: MLN4924 1 uM, 8 h) was 2.69 ± 0.11.
Work on TRQLSLAVKDGLIVETLTVGCKGS [ZMYND11] yielded a protein stability index (treatment: DMSO) of 3.17 ± 0.15 and a protein stability index (treatment: MLN4924 1 uM, 8 h) of 3.49 ± 0.26.
In the case of TTLLRRYNIPHGPVVGSTRRLYEK [EMD], the protein stability index (treatment: DMSO) is reported as 3.14 ± 0.16 and the protein stability index (treatment: MLN4924 1 uM, 8 h) is reported as 3.25 ± 0.15.
Sequence TTNVGRYPVGRFPSLHVVKVLLDC [FEM1A] has a protein stability index (treatment: DMSO) of 2.52 ± 0.4 and a protein stability index (treatment: MLN4924 1 uM, 8 h) of 2.48 ± 0.27.
In the case of TTPLQLAIIRERSSCVKILLDHNA [ASB7], the protein stability index (treatment: DMSO) is reported as 2.26 ± 0.16 and the protein stability index (treatment: MLN4924 1 uM, 8 h) is reported as 2.34 ± 0.22.
TTSTLKAWLNEHRKNPYPTKGEKI [IRX6] gave a protein stability index (treatment: DMSO) of 3.13 ± 0.44 and a protein stability index (treatment: MLN4924 1 uM, 8 h) of 3.37 ± 0.16.
Sequence TVAAETRAVIAWMEKIPFVLGGNL [CPXM2] has a protein stability index (treatment: DMSO) of 2.56 ± 0.86 and a protein stability index (treatment: MLN4924 1 uM, 8 h) of 2.71 ± 0.6.
TVEDLFYNIATRRKALKNPSEEYG [MLH1] gave a protein stability index (treatment: DMSO) of 3.02 ± 0.8 and a protein stability index (treatment: MLN4924 1 uM, 8 h) of 3.06 ± 0.1.
Work on TVEKPGGKKVAVVLMDTQGAFDSQ [ATL3] yielded a protein stability index (treatment: DMSO) of 4.18 ± 0.13 and a protein stability index (treatment: MLN4924 1 uM, 8 h) of 4.16 ± 0.22.
Work on TVMEKCSDGWWRGSYNGQIGWFPS [NCK2] yielded a protein stability index (treatment: DMSO) of 2.45 ± 0.51 and a protein stability index (treatment: MLN4924 1 uM, 8 h) of 2.26 ± 0.37.
With TVSTMYYLWMCSTLALLLNFLACL [SCAMP3] the protein stability index (treatment: DMSO) was 3.13 ± 0.22 and the protein stability index (treatment: MLN4924 1 uM, 8 h) was 3.03 ± 0.63.
TVVEEPVDITPYLDQLDESLRDKV [INTS3] gave a protein stability index (treatment: DMSO) of 5.12 ± 0.16 and a protein stability index (treatment: MLN4924 1 uM, 8 h) of 5.03 ± 0.33.
With TVVPLDDATQEYKEKLQKCLEPLE [TRIM39] the protein stability index (treatment: DMSO) was 5.27 ± 0.13 and the protein stability index (treatment: MLN4924 1 uM, 8 h) was 5.22 ± 0.21.
Sequence VAAACACGFTVAQIITSLVFHLPF [OR10K2] has a protein stability index (treatment: DMSO) of 3.43 ± 0.54 and a protein stability index (treatment: MLN4924 1 uM, 8 h) of 3.42 ± 0.68.
In the case of VAALREEQKVLSRLVESLSTQIRA [RASAL3], the protein stability index (treatment: DMSO) is reported as 2.34 ± 0.35 and the protein stability index (treatment: MLN4924 1 uM, 8 h) is reported as 2.38 ± 0.11.
For VAGMPTAYDLSSVIASGSSVGHNN [CARM1], the protein stability index (treatment: DMSO) was 3.86 ± 0.19 and the protein stability index (treatment: MLN4924 1 uM, 8 h) was 3.86 ± 0.23.
VAREYYSEADASHCIQQILESVNH [CAMK2D] gave a protein stability index (treatment: DMSO) of 3.46 ± 0.17 and a protein stability index (treatment: MLN4924 1 uM, 8 h) of 3.37 ± 0.3.
Sequence VASNSELVQSSRSEVTELRRVLQG [KRT16] has a protein stability index (treatment: DMSO) of 4.33 ± 0.36 and a protein stability index (treatment: MLN4924 1 uM, 8 h) of 4.47 ± 0.27.
VAYRSLGRFEQLGKTAASWCLHVN [FSD1] gave a protein stability index (treatment: DMSO) of 2.6 ± 0.6 and a protein stability index (treatment: MLN4924 1 uM, 8 h) of 2.2 ± 0.36.
